Test results from doi:10.1101/2020.03.10.985002.

T1: HY5 (UniProt O24646 1-168)
T1 sequence: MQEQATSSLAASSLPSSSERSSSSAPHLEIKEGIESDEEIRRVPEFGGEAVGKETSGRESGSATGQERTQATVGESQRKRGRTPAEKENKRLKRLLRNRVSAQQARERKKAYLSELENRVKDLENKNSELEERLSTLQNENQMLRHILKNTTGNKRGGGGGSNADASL

B1: PAP8 promoter box probe (oP8Box) (dsDNA)
DNA 1: GGATACCAAAAATGACGCTCTTAATTATTTCC
DNA 2: GGAAATAATTAAGAGCGTCATTTTTGGTATCC
B2: G-box cold competitor (GbH5) (dsDNA)
DNA 1: GTTCTAGTGTATCAGACACGTGTCGACAAACTGGTGG
DNA 2: CCACCAGTTTGTCGACACGTGTCTGATACACTAGAA

Legend:
HY5 [1] = molecular target: T1, HY5; test: EMSA
HY5 [2] = molecular target: T1, HY5; test: competition

| Binder | binding result (HY5 [1]) | binding result (HY5 [2]) |
| --- | --- | --- |
| B1 | binds |  |
| B2 |  | binds |
